Results published in the Immune Epitope Database (IEDB).

Legend:
HLA-C*15:02 = experiment: IEDB peptide-MHC binding, purified MHC/direct/fluorescence; filed as Kd, often an IC50 or EC50 that approximates it; ≥ and ≤ were set here for values at or beyond the usual limits of such assays; settings: source organism: Salmonella enterica subsp. enterica serovar Typhi str. CT18
HLA-A*01:01 = experiment: IEDB peptide-MHC binding, purified MHC/competitive/fluorescence; filed as Kd, often an IC50 or EC50 that approximates it; ≥ and ≤ were set here for values at or beyond the usual limits of such assays; settings: source organism: Salmonella enterica subsp. enterica serovar Typhi
HLA-A*25:01 = experiment: as above; settings: source organism: Salmonella enterica subsp. enterica serovar Typhi
HLA-B*38:01 = experiment: as above; settings: source organism: Salmonella enterica subsp. enterica serovar Typhi
HLA-B*39:01 = experiment: as above; settings: source organism: Salmonella enterica subsp. enterica serovar Typhi
HLA-B*15:42 = experiment: as above; settings: source organism: Salmonella enterica subsp. enterica serovar Typhi
HLA-A*02:06 = experiment: as above; settings: source organism: Salmonella enterica subsp. enterica serovar Typhi
HLA-B*15:09 = experiment: as above; settings: source organism: Salmonella enterica subsp. enterica serovar Typhi
HLA-B*58:01 = experiment: as above; settings: source organism: Salmonella enterica subsp. enterica serovar Typhi
HLA-A*69:01 = experiment: as above; settings: source organism: Salmonella enterica subsp. enterica serovar Typhi
HLA-B*51:01 = experiment: as above; settings: source organism: Salmonella enterica subsp. enterica serovar Typhi
HLA-A*31:01 = experiment: as above; settings: source organism: Salmonella enterica subsp. enterica serovar Typhi
HLA-B*45:06 = experiment: as above; settings: source organism: Salmonella enterica subsp. enterica serovar Typhi
HLA-C*14:02 = experiment: as above; settings: source organism: Salmonella enterica subsp. enterica serovar Typhi
HLA-A*26:01 = experiment: as above; settings: source organism: Salmonella enterica subsp. enterica serovar Typhi
HLA-B*40:01 = experiment: as above; settings: source organism: Salmonella enterica subsp. enterica serovar Typhi
HLA-B*08:01 = experiment: as above; settings: source organism: Salmonella enterica subsp. enterica serovar Typhi
HLA-B*48:01 = experiment: as above; settings: source organism: Salmonella enterica subsp. enterica serovar Typhi
HLA-B*15:01 = experiment: as above; settings: source organism: Salmonella enterica subsp. enterica serovar Typhi
HLA-A*29:02 = experiment: as above; settings: source organism: Salmonella enterica subsp. enterica serovar Typhi
HLA-B*27:05 = experiment: as above; settings: source organism: Salmonella enterica subsp. enterica serovar Typhi
HLA-A*03:01 = experiment: as above; settings: source organism: Salmonella enterica subsp. enterica serovar Typhi
HLA-A*02:03 = experiment: as above; settings: source organism: Salmonella enterica subsp. enterica serovar Typhi
HLA-A*03:19 = experiment: as above; settings: source organism: Salmonella enterica subsp. enterica serovar Typhi

## SVIDHIHYM
HLA-C*15:02
  Kd: 0.095 µM
HLA-A*01:01
  Kd: ≥ 20 µM
HLA-A*25:01
  Kd: 0.0137 µM
HLA-B*38:01
  Kd: ≥ 20 µM
HLA-B*39:01
  Kd: 2.8 µM
HLA-B*15:42
  Kd: ≥ 5 µM
HLA-A*02:06
  Kd: ≤ 0.001 µM
HLA-B*15:09
  Kd: ≥ 20 µM
HLA-B*58:01
  Kd: 0.29 µM
HLA-A*69:01
  Kd: 0.0006 µM
HLA-B*51:01
  Kd: ≥ 20 µM
HLA-A*31:01
  Kd: 0.231 µM
HLA-B*45:06
  Kd: ≥ 5 µM
HLA-C*14:02
  Kd: 0.0384 µM
HLA-A*26:01
  Kd: 0.00028 µM
HLA-B*40:01
  Kd: ≥ 20 µM
HLA-B*08:01
  Kd: ≥ 20 µM
HLA-B*48:01
  Kd: ≥ 20 µM
HLA-B*15:01
  Kd: 0.145 µM
HLA-A*29:02
  Kd: 0.0012 µM
HLA-B*27:05
  Kd: ≥ 20 µM
HLA-A*03:01
  Kd: ≥ 20 µM
HLA-A*02:03
  Kd: 0.0031 µM
HLA-A*03:19
  Kd: 0.982 µM
